We go through four molecules from paper PMC7094638 (Journal of Molecular Biology, 2007).

The data set “cross-linking” deals with the molecule itself. Put plainly: cross-linking.
For data set [1], the target named is SARS-CoV N protein NTD (NP45-181) (SARS-CoV, UniProt P59595 45-181). Put plainly: EMSA. In general terms: Mobility shift assays separate free from complexed probe on a gel.
In data set [2] the target is T1, SARS-CoV N protein CTD (NP248-365) (SARS-CoV, UniProt P59595 248-365). As to the kind of experiment: EMSA.
Data set [3] deals with SARS-CoV N protein NP281-365 (SARS-CoV, UniProt P59595 281-365). As to the kind of experiment: EMSA.
Data set [4] addresses SARS-CoV N protein NP45-365 (SARS-CoV, UniProt P59595 45-365). As to the kind of experiment: EMSA.
Data set [5] deals with T1, SARS-CoV N protein CTD (NP248-365). As to the kind of experiment: EMSA. This is another data set of the same source.

Where two headings read alike, the source gives them in different places.

B1: SARS-CoV NP248-365 (C-terminal domain of the SARS-CoV nucleocapsid protein, residues 248-365) (domain or fragment)
chain: TKKSAAEASKKPRQKRTATKQYNVTQAFGRRGPEQTQGNFGDQDLIRQGTDYKHWPQIAQFAPSASAFFGMSRIGMEVTPSGTWLTYHGAIKLDDKDPQFKDNVILLNKHIDAYKTFP
For the molecule B1, the binding result in “cross-linking” is recorded as “binds”.

In the case of CGAGGCCACGCGGAGUACGAUCGAGGGUACAG (ssRNA) [s2m 32-mer ssRNA], the binding result in data set [1] is “binds”; in data set [2], “binds”; in data set [3], “no binding”; in data set [4], “binds”.

Consider CGAGGCCACGCGGAGTACGATCGAGGGTACAG (ssDNA) [32-mer ssDNA mimic of s2m], for which the binding result in data set [1] is recorded as “binds”; in data set [2], “binds”; in data set [3] it was “no binding”; in data set [4], “binds”.

B2: 32-mer s2m dsDNA (dsDNA)
DNA 1: CGAGGCCACGCGGAGTACGATCGAGGGTACAG
DNA 2: CTGTACCCTCGATCGTACTCCGCGTGGCCTCG
For the molecule B2, the binding result in data set [5] was “binds”; in data set [3] it was “no binding”.
